Measured values as given in PMC5771465 (Nature structural & molecular biology, 2016).

What was measured:
[1] = target: C5-OmCI complex (human | not stated (tick)) (UniProt Q5YD59); experiment: SEC-MALS
complement C5 = complement C5 (human, UniProt P01031); experiment: crystal structure

| Molecule | stoichiometry N [1] | binding result (complement C5) |
| --- | --- | --- |
| RaCI3 (from UniProt A0A146B485 25-102) (natural protein) | 1 |  |
| His-tagged OmCI carrying two glycosylation mutations (N78Q/N102Q) (natural protein) DSESDCTGSEPVDAFQAFSEGKEAYVLVRSTDPKARDCLKGEPAGEKQDNTLPVMMTFKQGTDWASTDWTFTLDGAKVTATLGQLTQNREVVYDSQSHHCHVDKVEKEVPDYEMWMLDAGGLEVEVECCRQKLEELASGRNQMYPHLKDC |  | binds |
